Assay results from publication PMC2756588.

T1: Fus1, P11710
T1 sequence (P11710 432-512, looked up): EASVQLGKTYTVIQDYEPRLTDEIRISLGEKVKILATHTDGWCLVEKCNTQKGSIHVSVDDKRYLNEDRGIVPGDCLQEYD

T2: Myo5, Q04439
T2 sequence (Q04439 1072-1160, looked up): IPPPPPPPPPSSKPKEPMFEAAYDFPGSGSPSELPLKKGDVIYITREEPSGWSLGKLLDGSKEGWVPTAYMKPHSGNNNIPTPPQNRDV

T3: Lsb3, P43603
T3 sequence (P43603 385-451, looked up): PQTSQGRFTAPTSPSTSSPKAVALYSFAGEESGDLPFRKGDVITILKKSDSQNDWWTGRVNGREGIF

T4: Bbc1, P47068
T4 sequence (P47068 1-78, looked up): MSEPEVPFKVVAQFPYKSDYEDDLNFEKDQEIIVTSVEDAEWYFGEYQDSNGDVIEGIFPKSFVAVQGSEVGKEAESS

T5: Lsb1, P53281
T5 sequence (P53281 45-122, looked up): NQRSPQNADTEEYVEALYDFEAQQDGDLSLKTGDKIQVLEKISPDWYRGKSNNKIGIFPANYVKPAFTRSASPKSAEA

T6: Pin3, Q06449
T6 sequence (Q06449 53-122, looked up): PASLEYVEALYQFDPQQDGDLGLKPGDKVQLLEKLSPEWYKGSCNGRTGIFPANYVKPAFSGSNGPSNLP

T7: Sla1-3, P32790
T7 sequence (P32790 344-424, looked up): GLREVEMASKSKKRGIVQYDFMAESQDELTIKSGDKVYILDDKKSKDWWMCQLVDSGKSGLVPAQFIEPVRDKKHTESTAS

T8: Bzz1-2, P38822
T8 sequence (P38822 568-633, looked up): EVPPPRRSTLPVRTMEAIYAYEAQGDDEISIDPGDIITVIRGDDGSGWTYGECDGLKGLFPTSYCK

T9: Cyk3, Q07533
T9 sequence (Q07533 1-83, looked up): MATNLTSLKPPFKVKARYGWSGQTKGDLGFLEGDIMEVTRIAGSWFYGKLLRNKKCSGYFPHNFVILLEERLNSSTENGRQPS

T10: Boi2, P39969
T10 sequence (P39969 32-116, looked up): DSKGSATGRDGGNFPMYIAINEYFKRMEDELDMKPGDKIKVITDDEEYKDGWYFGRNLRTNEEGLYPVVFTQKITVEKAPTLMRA

T11: Hse1, P38753
T11 sequence (P38753 208-285, looked up): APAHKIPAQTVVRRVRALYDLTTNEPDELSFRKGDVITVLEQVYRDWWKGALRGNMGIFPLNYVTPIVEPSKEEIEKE

T12: Lsb4, P32793
T12 sequence (P32793 402-468, looked up): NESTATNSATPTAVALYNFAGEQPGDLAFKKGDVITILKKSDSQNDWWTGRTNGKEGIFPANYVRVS

T13: Hof1, Q05080
T13 sequence (Q05080 590-669, looked up): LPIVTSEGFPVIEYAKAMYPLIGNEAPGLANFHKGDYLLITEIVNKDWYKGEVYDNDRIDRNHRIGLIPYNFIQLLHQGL

T14: Cdc25, P04821
T14 sequence (P04821 50-136, looked up): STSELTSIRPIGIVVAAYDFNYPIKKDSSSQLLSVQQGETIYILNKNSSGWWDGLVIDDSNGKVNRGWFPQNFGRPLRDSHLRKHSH

T15: Nbp2, Q12163
T15 sequence (Q12163 103-180, looked up): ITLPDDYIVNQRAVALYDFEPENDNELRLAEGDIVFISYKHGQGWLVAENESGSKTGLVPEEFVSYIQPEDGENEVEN

T16: Abp1, P15891
T16 sequence (P15891 535-592, looked up): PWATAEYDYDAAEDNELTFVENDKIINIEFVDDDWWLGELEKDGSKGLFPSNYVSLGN

T17: Sla1-2, P32790
T17 sequence (P32790 60-140, looked up): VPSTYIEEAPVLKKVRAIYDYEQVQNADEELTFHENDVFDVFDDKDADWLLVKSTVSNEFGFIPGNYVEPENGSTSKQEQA

T18: Bzz1-1, P38822
T18 sequence (P38822 478-572, looked up): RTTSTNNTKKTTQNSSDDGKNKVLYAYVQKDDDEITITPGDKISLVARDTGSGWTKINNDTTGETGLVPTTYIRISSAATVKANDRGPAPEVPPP

T19: Boi1, P38041
T19 sequence (P38041 1-86, looked up): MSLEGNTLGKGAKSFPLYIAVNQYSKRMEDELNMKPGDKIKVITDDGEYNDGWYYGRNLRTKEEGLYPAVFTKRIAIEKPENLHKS

T20: Bud14, P27637
T20 sequence (P27637 247-328, looked up): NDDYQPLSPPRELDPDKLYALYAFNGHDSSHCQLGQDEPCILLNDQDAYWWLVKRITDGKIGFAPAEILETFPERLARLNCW

T21: Pex13, P80667
T21 sequence (P80667 295-386, looked up): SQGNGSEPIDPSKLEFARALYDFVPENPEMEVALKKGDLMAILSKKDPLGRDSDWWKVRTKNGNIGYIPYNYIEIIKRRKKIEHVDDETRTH


Each binder was assayed against T1, Fus1, P11710 (assay: SPOT array). Settings: median of control spots 1200.
In the case of SHRLWLYAAPKRPKT, the SPOT intensity is reported as 20.
NNFYRPLLRSVLVLL gave an SPOT intensity of 13.
HHNRRKPLEVYFKAT showed an SPOT intensity of 565.

Each binder was assayed against T2, Myo5, Q04439 (assay: SPOT array). Settings: median of control spots 471.
SHRLWLYAAPKRPKT gave an SPOT intensity of 0.
Work on NNFYRPLLRSVLVLL yielded an SPOT intensity of 0.
Binder HHNRRKPLEVYFKAT has an SPOT intensity of 1.

Each binder was assayed against T3, Lsb3, P43603 (assay: SPOT array). Settings: median of control spots 406.
SHRLWLYAAPKRPKT gave an SPOT intensity of 5.
With NNFYRPLLRSVLVLL the SPOT intensity was 1.
In the case of HHNRRKPLEVYFKAT, the SPOT intensity is reported as 0.

These binders were tested against Bem1-2, P29366 (assay: SPOT array). Settings: median of control spots 4347.
Bem1-2, P29366, sequence (P29366 139-227): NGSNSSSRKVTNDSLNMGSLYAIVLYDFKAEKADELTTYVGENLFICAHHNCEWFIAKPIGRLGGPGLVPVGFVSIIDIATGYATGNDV
With SHRLWLYAAPKRPKT the SPOT intensity was 0.
NNFYRPLLRSVLVLL showed an SPOT intensity of 3.
HHNRRKPLEVYFKAT showed an SPOT intensity of 6.

The binders below were run against T4, Bbc1, P47068 (assay: SPOT array). Settings: median of control spots 796.
With SHRLWLYAAPKRPKT the SPOT intensity was 34.
Binder NNFYRPLLRSVLVLL has an SPOT intensity of 37.
For HHNRRKPLEVYFKAT, the SPOT intensity was 7.

Each binder was assayed against T5, Lsb1, P53281 (assay: SPOT array). Settings: median of control spots 388.
With SHRLWLYAAPKRPKT the SPOT intensity was 0.
NNFYRPLLRSVLVLL was tested, and the SPOT intensity was 0.
HHNRRKPLEVYFKAT gave an SPOT intensity of 0.

What follows are binders tested against T6, Pin3, Q06449 (assay: SPOT array). Settings: median of control spots 2171.
Work on SHRLWLYAAPKRPKT yielded an SPOT intensity of 13.
NNFYRPLLRSVLVLL was tested, and the SPOT intensity was 5.
In the case of HHNRRKPLEVYFKAT, the SPOT intensity is reported as 20.

What follows are binders tested against T7, Sla1-3, P32790 (assay: SPOT array). Settings: median of control spots 5475.
SHRLWLYAAPKRPKT gave an SPOT intensity of 16.
NNFYRPLLRSVLVLL gave an SPOT intensity of 4.
HHNRRKPLEVYFKAT showed an SPOT intensity of 14.

These binders were tested against T8, Bzz1-2, P38822 (assay: SPOT array). Settings: median of control spots 4538.
Work on SHRLWLYAAPKRPKT yielded an SPOT intensity of 0.
In the case of NNFYRPLLRSVLVLL, the SPOT intensity is reported as 2.
With HHNRRKPLEVYFKAT the SPOT intensity was 0.

The binders below were run against T9, Cyk3, Q07533 (assay: SPOT array). Settings: median of control spots 1451.
For SHRLWLYAAPKRPKT, the SPOT intensity was 4.
With NNFYRPLLRSVLVLL the SPOT intensity was 9.
Binder HHNRRKPLEVYFKAT has an SPOT intensity of 3.

These binders were tested against T10, Boi2, P39969 (assay: SPOT array). Settings: median of control spots 1161.
SHRLWLYAAPKRPKT was tested, and the SPOT intensity was 0.
Binder NNFYRPLLRSVLVLL has an SPOT intensity of 2.
HHNRRKPLEVYFKAT gave an SPOT intensity of 2.

What follows are binders tested against T11, Hse1, P38753 (assay: SPOT array). Settings: median of control spots 1727.
SHRLWLYAAPKRPKT gave an SPOT intensity of 8.
Work on NNFYRPLLRSVLVLL yielded an SPOT intensity of 0.
HHNRRKPLEVYFKAT showed an SPOT intensity of 6.

The binders below were run against T12, Lsb4, P32793 (assay: SPOT array). Settings: median of control spots 397.
SHRLWLYAAPKRPKT showed an SPOT intensity of 0.
Binder NNFYRPLLRSVLVLL has an SPOT intensity of 0.
Binder HHNRRKPLEVYFKAT has an SPOT intensity of 1.

The binders below were run against T13, Hof1, Q05080 (assay: SPOT array). Settings: median of control spots 4086.
SHRLWLYAAPKRPKT was tested, and the SPOT intensity was 5.
NNFYRPLLRSVLVLL showed an SPOT intensity of 0.
For HHNRRKPLEVYFKAT, the SPOT intensity was 12.

The binders below were run against T14, Cdc25, P04821 (assay: SPOT array). Settings: median of control spots 969.
In the case of SHRLWLYAAPKRPKT, the SPOT intensity is reported as 5.
Binder NNFYRPLLRSVLVLL has an SPOT intensity of 22.
For HHNRRKPLEVYFKAT, the SPOT intensity was 10.

These binders were tested against Sho1, P40073 (assay: SPOT array). Settings: median of control spots 1148.
Sho1, P40073, sequence (P40073 287-367): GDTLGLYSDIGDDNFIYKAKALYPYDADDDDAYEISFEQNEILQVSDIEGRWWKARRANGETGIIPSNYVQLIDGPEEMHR
SHRLWLYAAPKRPKT showed an SPOT intensity of 39.
Work on NNFYRPLLRSVLVLL yielded an SPOT intensity of 17.
In the case of HHNRRKPLEVYFKAT, the SPOT intensity is reported as 43.

The binders below were run against T15, Nbp2, Q12163 (assay: SPOT array). Settings: median of control spots 357.
Binder SHRLWLYAAPKRPKT has an SPOT intensity of 1.
NNFYRPLLRSVLVLL gave an SPOT intensity of 3.
HHNRRKPLEVYFKAT was tested, and the SPOT intensity was 0.

Each binder was assayed against T16, Abp1, P15891 (assay: SPOT array). Settings: median of control spots 935.
In the case of SHRLWLYAAPKRPKT, the SPOT intensity is reported as 47.
With NNFYRPLLRSVLVLL the SPOT intensity was 14.
In the case of HHNRRKPLEVYFKAT, the SPOT intensity is reported as 10.

The binders below were run against T17, Sla1-2, P32790 (assay: SPOT array). Settings: median of control spots 712.
Binder SHRLWLYAAPKRPKT has an SPOT intensity of 3.
NNFYRPLLRSVLVLL gave an SPOT intensity of 0.
HHNRRKPLEVYFKAT was tested, and the SPOT intensity was 0.

These binders were tested against T18, Bzz1-1, P38822 (assay: SPOT array). Settings: median of control spots 4446.
SHRLWLYAAPKRPKT showed an SPOT intensity of 2.
With NNFYRPLLRSVLVLL the SPOT intensity was 3.
Work on HHNRRKPLEVYFKAT yielded an SPOT intensity of 3.

Each binder was assayed against T19, Boi1, P38041 (assay: SPOT array). Settings: median of control spots 1162.
SHRLWLYAAPKRPKT gave an SPOT intensity of 1.
In the case of NNFYRPLLRSVLVLL, the SPOT intensity is reported as 6.
HHNRRKPLEVYFKAT was tested, and the SPOT intensity was 0.

Each binder was assayed against Myo3, P36006 (assay: SPOT array). Settings: median of control spots 468.
Work on SHRLWLYAAPKRPKT yielded an SPOT intensity of 6.
NNFYRPLLRSVLVLL was tested, and the SPOT intensity was 0.
HHNRRKPLEVYFKAT showed an SPOT intensity of 3.

What follows are binders tested against T20, Bud14, P27637 (assay: SPOT array). Settings: median of control spots 956.
Work on SHRLWLYAAPKRPKT yielded an SPOT intensity of 5.
Work on NNFYRPLLRSVLVLL yielded an SPOT intensity of 14.
HHNRRKPLEVYFKAT showed an SPOT intensity of 10.

Each binder was assayed against GST (assay: SPOT array). Settings: median of control spots 978.
Binder SHRLWLYAAPKRPKT has an SPOT intensity of 0.
In the case of NNFYRPLLRSVLVLL, the SPOT intensity is reported as 1.
Work on HHNRRKPLEVYFKAT yielded an SPOT intensity of 1.

These binders were tested against Bem1-1, P29366 (assay: SPOT array). Settings: median of control spots 4282.
Bem1-1, P29366, sequence (P29366 55-141): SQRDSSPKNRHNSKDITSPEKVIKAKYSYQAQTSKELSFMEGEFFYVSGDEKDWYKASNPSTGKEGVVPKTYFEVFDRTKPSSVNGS
In the case of SHRLWLYAAPKRPKT, the SPOT intensity is reported as 0.
NNFYRPLLRSVLVLL gave an SPOT intensity of 0.
In the case of HHNRRKPLEVYFKAT, the SPOT intensity is reported as 43.

Each binder was assayed against Rvs167, P39743 (assay: SPOT array). Settings: median of control spots 2707.
Rvs167, P39743, sequence (P39743 419-482): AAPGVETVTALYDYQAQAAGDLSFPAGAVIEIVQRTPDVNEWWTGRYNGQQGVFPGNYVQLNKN
For SHRLWLYAAPKRPKT, the SPOT intensity was 0.
NNFYRPLLRSVLVLL was tested, and the SPOT intensity was 2.
Work on HHNRRKPLEVYFKAT yielded an SPOT intensity of 2.

The binders below were run against T21, Pex13, P80667 (assay: SPOT array). Settings: median of control spots 1341.
SHRLWLYAAPKRPKT gave an SPOT intensity of 8.
In the case of NNFYRPLLRSVLVLL, the SPOT intensity is reported as 4.
In the case of HHNRRKPLEVYFKAT, the SPOT intensity is reported as 16.
